Patent US20170283497A1 (CELLECTIS, published 2017)

B1: D10-v5 scCAR (other)
chain: QVQLKESGPGLVAPSQTLSITCTVSGFSLTSYGVHWVRQPPGKGLEWLGVIWAGGFTNYNSALKSRLSISKDNSKSQVLLKMTSLQTDDTAMYYCARRGSSYSMDYWGQGTSVTVSSGGGGSGGGGSGGGGSEIVLSQSPAITAASLGQKVTITCSASSNVSYIHWYQQRSGTSPRPWIYEISKLASGVPVRFSGSGSGTSYSLTISSMEAEDAAIYYCQQWNYPLITFGSGTKLEIQEPKSPDKTHTCPPCPAPPVAGPSVFLFPPKPKDTLMIARTPEVTCVVVDVSHEDPEVKFNWYVDGVEVHNAKTKPREEQYNSTYRVVSVLTVLHQDWLNGKEYKCKVSNKALPAPIEKTISKAKGQPREPQVYTLPPSRDELTKNQVSLTCLVKGFYPSDIAVEWESNGQPENNYKTTPPVLDSDGSFFLYSKLTVDKSRWQQGNVFSCSVMHEALHNHYTQKSLSLSPGKIYIWAPLAGTCGVLLLSLVITLYCKRGRKKLLYIFKQPFMRPVQTTQEEDGCSCRFPEEEEGGCELRVKFSRSADAPAYQQGQNQLYNELNLGRREEYDVLDKRRGRDPEMGGKPRRKNPQEGLYNELQKDKMAEAYSEIGMKGERRRGKGHDGLYQGLSTATKDTYDALHMQALPPR
B2: D10-v3 scCAR (other)
chain: QVQLKESGPGLVAPSQTLSITCTVSGFSLTSYGVHWVRQPPGKGLEWLGVIWAGGFTNYNSALKSRLSISKDNSKSQVLLKMTSLQTDDTAMYYCARRGSSYSMDYWGQGTSVTVSSGGGGSGGGGSGGGGSEIVLSQSPAITAASLGQKVTITCSASSNVSYIHWYQQRSGTSPRPWIYEISKLASGVPVRFSGSGSGTSYSLTISSMEAEDAAIYYCQQWNYPLITFGSGTKLEIQTTTPAPRPPTPAPTIASQPLSLRPEACRPAAGGAVHTRGLDFACDIYIWAPLAGTCGVLLLSLVITLYCKRGRKKLLYIFKQPFMRPVQTTQEEDGCSCRFPEEEEGGCELRVKFSRSADAPAYQQGQNQLYNELNLGRREEYDVLDKRRGRDPEMGGKPRRKNPQEGLYNELQKDKMAEAYSEIGMKGERRRGKGHDGLYQGLSTATKDTYDALHMQALPPR
B3: H10-v1 scCAR (other)
chain: EVKLVESGGGLVKPGGSLKLSCAASGFTFSSYAMSWVRQTPEKRLEWVASISTGASAYFPDSVKGRFTISRDNARNILYLQMSSLRSEDTAMYYCARITTSTWYFDVWGAGTTVTVSSGGGGSGGGGSGGGGSDIKMTQSPSSMYASLGERVTITCKASQDINSYLSWFQQKPGKSPKTLIYRANRLVDGVPSRFSGSGSGQDYSLTISSLEYEDMGIYYCLQYDEFPYTFGGGTKLEIKGLAVSTISSFFPPGYQIYIWAPLAGTCGVLLLSLVITLYCKRGRKKLLYIFKQPFMRPVQTTQEEDGCSCRFPEEEEGGCELRVKFSRSADAPAYQQGQNQLYNELNLGRREEYDVLDKRRGRDPEMGGKPRRKNPQEGLYNELQKDKMAEAYSEIGMKGERRRGKGHDGLYQGLSTATKDTYDALHMQALPPR
B4: D10-v1 scCAR (other)
chain: QVQLKESGPGLVAPSQTLSITCTVSGFSLTSYGVHWVRQPPGKGLEWLGVIWAGGFTNYNSALKSRLSISKDNSKSQVLLKMTSLQTDDTAMYYCARRGSSYSMDYWGQGTSVTVSSGGGGSGGGGSGGGGSEIVLSQSPAITAASLGQKVTITCSASSNVSYIHWYQQRSGTSPRPWIYEISKLASGVPVRFSGSGSGTSYSLTISSMEAEDAAIYYCQQWNYPLITFGSGTKLEIQGLAVSTISSFFPPGYQIYIWAPLAGTCGVLLLSLVITLYCKRGRKKLLYIFKQPFMRPVQTTQEEDGCSCRFPEEEEGGCELRVKFSRSADAPAYQQGQNQLYNELNLGRREEYDVLDKRRGRDPEMGGKPRRKNPQEGLYNELQKDKMAEAYSEIGMKGERRRGKGHDGLYQGLSTATKDTYDALHMQALPPR
B5: H10-v5 scCAR (other)
chain: EVKLVESGGGLVKPGGSLKLSCAASGFTFSSYAMSWVRQTPEKRLEWVASISTGASAYFPDSVKGRFTISRDNARNILYLQMSSLRSEDTAMYYCARITTSTWYFDVWGAGTTVTVSSGGGGSGGGGSGGGGSDIKMTQSPSSMYASLGERVTITCKASQDINSYLSWFQQKPGKSPKTLIYRANRLVDGVPSRFSGSGSGQDYSLTISSLEYEDMGIYYCLQYDEFPYTFGGGTKLEIKEPKSPDKTHTCPPCPAPPVAGPSVFLFPPKPKDTLMIARTPEVTCVVVDVSHEDPEVKFNWYVDGVEVHNAKTKPREEQYNSTYRVVSVLTVLHQDWLNGKEYKCKVSNKALPAPIEKTISKAKGQPREPQVYTLPPSRDELTKNQVSLTCLVKGFYPSDIAVEWESNGQPENNYKTTPPVLDSDGSFFLYSKLTVDKSRWQQGNVFSCSVMHEALHNHYTQKSLSLSPGKIYIWAPLAGTCGVLLLSLVITLYCKRGRKKLLYIFKQPFMRPVQTTQEEDGCSCRFPEEEEGGCELRVKFSRSADAPAYQQGQNQLYNELNLGRREEYDVLDKRRGRDPEMGGKPRRKNPQEGLYNELQKDKMAEAYSEIGMKGERRRGKGHDGLYQGLSTATKDTYDALHMQALPPR
B6: H10-v3 scCAR (other)
chain: EVKLVESGGGLVKPGGSLKLSCAASGFTFSSYAMSWVRQTPEKRLEWVASISTGASAYFPDSVKGRFTISRDNARNILYLQMSSLRSEDTAMYYCARITTSTWYFDVWGAGTTVTVSSGGGGSGGGGSGGGGSDIKMTQSPSSMYASLGERVTITCKASQDINSYLSWFQQKPGKSPKTLIYRANRLVDGVPSRFSGSGSGQDYSLTISSLEYEDMGIYYCLQYDEFPYTFGGGTKLEIKTTTPAPRPPTPAPTIASQPLSLRPEACRPAAGGAVHTRGLDFACDIYIWAPLAGTCGVLLLSLVITLYCKRGRKKLLYIFKQPFMRPVQTTQEEDGCSCRFPEEEEGGCELRVKFSRSADAPAYQQGQNQLYNELNLGRREEYDVLDKRRGRDPEMGGKPRRKNPQEGLYNELQKDKMAEAYSEIGMKGERRRGKGHDGLYQGLSTATKDTYDALHMQALPPR

Biological target: Tyrosine-protein kinase transmembrane receptor ROR1 (human, UniProt Q01973 30-937)
Assay: cell-based or functional assay

Tyrosine-protein kinase transmembrane receptor ROR1, sequence (Q01973 30-937): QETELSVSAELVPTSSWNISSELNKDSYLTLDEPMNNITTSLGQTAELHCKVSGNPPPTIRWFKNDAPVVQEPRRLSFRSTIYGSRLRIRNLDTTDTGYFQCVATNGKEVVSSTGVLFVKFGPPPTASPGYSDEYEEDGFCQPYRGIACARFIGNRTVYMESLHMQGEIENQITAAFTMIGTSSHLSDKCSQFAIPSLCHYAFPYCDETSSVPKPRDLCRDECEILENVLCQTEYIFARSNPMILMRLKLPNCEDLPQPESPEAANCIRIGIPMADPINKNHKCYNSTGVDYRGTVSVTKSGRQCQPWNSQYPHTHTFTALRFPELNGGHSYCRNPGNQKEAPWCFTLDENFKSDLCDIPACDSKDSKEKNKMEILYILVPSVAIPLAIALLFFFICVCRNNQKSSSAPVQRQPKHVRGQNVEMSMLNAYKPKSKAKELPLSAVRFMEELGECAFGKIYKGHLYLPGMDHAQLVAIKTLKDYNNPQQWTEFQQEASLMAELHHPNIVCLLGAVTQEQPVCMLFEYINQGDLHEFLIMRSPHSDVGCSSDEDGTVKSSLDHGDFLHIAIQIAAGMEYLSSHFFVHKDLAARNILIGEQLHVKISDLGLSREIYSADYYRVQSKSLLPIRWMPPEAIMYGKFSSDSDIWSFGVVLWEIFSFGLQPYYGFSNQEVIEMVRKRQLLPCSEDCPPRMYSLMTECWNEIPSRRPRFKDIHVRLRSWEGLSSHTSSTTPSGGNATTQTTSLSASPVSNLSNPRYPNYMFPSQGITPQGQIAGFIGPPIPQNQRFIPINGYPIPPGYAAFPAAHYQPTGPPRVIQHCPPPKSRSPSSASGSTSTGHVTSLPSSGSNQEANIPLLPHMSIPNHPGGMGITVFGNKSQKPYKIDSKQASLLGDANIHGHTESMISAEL

degranulation of scCAR-modified T cells (primary screening) [%] | degranulation of scCAR-modified T cells (secondary screening) [%] | production of IFNγ by scCAR-modified T cells [pg/mL] | Binder | cytotoxic activity of scCAR-modified T cells, specific lysis of PC-3 cells [%]
≥ 20 | ≥ 20 | ≥ 1500 | B1 | > 20
≥ 20 | ≥ 20 | ≥ 1500 | B2 | > 20
≥ 20 |  |  | B3 | 
≥ 20 |  |  | B4 | 
≥ 20 |  |  | B5 | 
≥ 20 | ≥ 20 | ≥ 1500 | B6 | > 20
